Results on ten molecules are retold here after PMC4596477, “Interaction of Myosin Phosphatase Target Subunit (MYPT1) with Myosin Phosphatase-RhoA Interacting Protein (MRIP): A Role of Glutamic Acids in the Interaction” (PLoS ONE, 2015).

The term Kd denotes the equilibrium constant for the complex coming apart. By stoichiometry N is commonly meant the number of molecules, sites or subunits per partner or assembly.

One series addresses T1, MRIP^724-878 (Homo sapiens, UniProt Q6WCQ1).
T1 construct: MRIP^724-878 (residues 724–878; CC2-CC4); made in house; host or cells: Escherichia coli BL21 (DE3)
T1 sequence (Q6WCQ1 725-879): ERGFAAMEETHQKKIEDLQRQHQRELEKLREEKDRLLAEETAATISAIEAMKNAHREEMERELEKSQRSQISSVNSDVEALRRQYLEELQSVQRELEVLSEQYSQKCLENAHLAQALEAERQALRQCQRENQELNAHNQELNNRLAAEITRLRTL
In words: AUC interaction of MYPT1 peptides (CC, LR and LR mutants) with MRIP^724-878. It is filed as binding. The settings on record: s*lg(s*) graphs, pH 7.4, 20°C; for main peak position of mixture with MRIP^724-878: excess mutant LR peptide for R992D/R993D and E996K, 50 μM each for others; for binding affinity toward MRIP^724-878, LR mutants: MRIP^724-878 with mutant LR peptide, 50 μM each, compared with wild-type LR. An excerpt:
To determine the minimal MRIP-binding region of MYPT1, AUC was employed to examine interactions between sub-domains of CCLR, CC (residues 924–990) and LR (residues 991–1030) with MRIP^724-878 (Fig 4A). CC is the putative coiled coil domain and LR contains 16 upstream amino acid residues (residues 991–1006) in addition to the leucine repeat (residues 1007–1028). MRIP^724-878 was chosen because of its good fit to a single component, single-species model. […] Global fitting of the mixture to a two-component model produced a good fit and the RMSD of the fit was 0.010 (Fig 4B; Fitting of CC).
The coiled coil is a common protein-protein interaction domain. The MRIP peptides in this study have putative coiled coil domains and are α-helical. In contrast, the MYPT1 peptide, LR is not α-helical even though it contains the leucine repeat. Thus, we hypothesized that charged residues of MYPT1 might participate in the MYPT1/MRIP interaction with its leucine residues. We generated various LR peptides representing mutations in charged residues (Fig 6A) and examined their bindings to MRIP^724-878 (Fig 6B).
Fig 6 Glutamic acids within LR enhance the MRIP-binding affinity. (A) Amino acid sequences of the wild-type LR (WT-LR) and mutant LR peptides. Charged residues are in bold, the leucine repeat is in Italic, and substitution mutations are underlined. (B) Time derivative s*lg(s*) graphs: Line, MRIP^724-878 alone (50 μM); filled-in circles, original mixture of MRIP^724-878/each mutant LR peptide (50 μM each except for R992D/R993D and E996K whose mixtures consisted of excess amount of the mutant LR peptides); open circles, a three-fold dilution of the original mixture. The molar mass of the complex differs slightly from that of MRIP^724-878 dimer (37.9 kDa vs 37.4 kDa), and thus the shift in the main peak position is not easily discernable in many cases.
(§1) The cDNA fragment encoding MRIP peptides were amplified using a full-length MRIP cDNA as a template with the following primer pairs: MRIP^545-878, 5’-[…]/5’[…]; MRIP^724-878, 5’-[…]/5’-[…]; MRIP^724-837, 5’-[…]/5’-[…]. The PCR products were ligated into pCR2.1-TOPO using the TA cloning system and sequenced in both directions. The IMPACT™ (Intein Mediated Purification with an Affinity Chitin-binding Tag) Kit (New England BioLabs) was used to express peptides in bacteria to obtain tag-free peptides. The PCR amplicon encoding MRIP peptides were fused in frame to the chitin binding domain of pTYB12 vector utilizing the NdeI/EcoRI restriction sites. The expression vectors for the MYPT1 peptides, CCLR (residues 924–1030), CC (residues 924–990), and LR (residues 991–1030) were constructed as described: In the reference literature, CCLR and LR were named CCLZ and LZ, respectively. Recombinant peptides were produced in Escherichia coli strain BL21 (DE3) and purified using chitin beads according to the manufacturer's protocol. For further purification, the eluent from chitin beads was loaded on a Vydac C8 reversed phase column and subjected to HPLC using an acetonitrile gradient. Purity and identity of the peptides were confirmed by polyacrylamide gel electrophoresis (PAGE) and mass spectrometry. For the mutagenesis study of LR, the wild-type and mutant LR peptides were synthesized, purified by reverse-phase HPLC, and lyophilized to dryness at the peptide core in Boston Biomedical Research Institute.
Sedimentation velocity experiments were done on a Beckman Instruments Optima XL-I analytical ultracentrifuge equipped with Rayleigh optics. The cells were equipped with sapphire windows and 12 mm charcoal-filled Epon centerpieces. Apparent sedimentation coefficient distribution patterns were computed by the time derivative method. Peptides were dialyzed against 50 mM potassium phosphate buffer (pH 7.4) containing 100 mM KCl, and 1 mM DTT at 4°C overnight and then subjected to AUC at 50,000 rpm and 20°C. […]

A short description of series [1]: AUC sedimentation velocity of MRIP peptides alone (molar mass, sedimentation coefficient, oligomeric state). Type of series: physicochemical.
Text: The RMSD of the fit was 0.008.
as §1
Sedimentation velocity experiments were done on a Beckman Instruments Optima XL-I analytical ultracentrifuge equipped with Rayleigh optics. The cells were equipped with sapphire windows and 12 mm charcoal-filled Epon centerpieces. Apparent sedimentation coefficient distribution patterns were computed by the time derivative method. Peptides were dialyzed against 50 mM potassium phosphate buffer (pH 7.4) containing 100 mM KCl, and 1 mM DTT at 4°C overnight and then subjected to AUC at 50,000 rpm and 20°C. Molar mass was computed from sedimentation velocity profiles using SedAnal, which uses a nonlinear least-squares curve fitting algorithm to fit data to solutions of the differential equation (the Lamm equation) describing sedimentation. Fits were performed on time difference data to remove the time-independent systematic baseline components. Values of s and D produced by the fitting procedure were substituted into the Svedberg equation to obtain the molar mass of the protein, M: M=RT/(1−ν¯ρ)s20,wo/D20,wo where ρ is the density of the buffer and ν¯ is the partial specific volume of the protein. Sednterp was employed to compute values of ρ and ν¯ from the amino acid sequence.

Another series deals with CCLR. In words: AUC interaction of MRIP peptides with MYPT1 peptide CCLR (residues 924–1030). The settings on record: equimolar mixtures (MRIP^545-878 14 μM each; MRIP^724-878 30 μM each; MRIP^724-837 67 μM each) and 3-, 9-fold dilutions, pH 7.4, 100 mM KCl, 20°C. Type of series: binding. As to the method: AUC was performed to examine the interactions of MRIP^545-878, MRIP^724-878, or MRIP^724-837 individually with the MYPT1 peptide (residues 924–1030) containing a putative coiled coil domain (CC) and the leucine repeat region (LR), designated as CCLR.
Fig 3 All MRIP peptides bind to the C-terminal region of MYPT1, CCLR (residues 924–1030). Concentration-normalized time derivative g(s*) graphs of the MRIP peptides by themselves and in equimolar mixtures: Lines, CCLR (30 μM); +, individual MRIP peptides by themselves (MRIP^545-878, 14 μM; MRIP^724-878, 50 μM; MRIP^724-837, 67 μM); black filled-in circles, original equimolar mixtures (MRIP^545-878, 14 μM each; MRIP^724-878, 30 μM each; MRIP^724-837, 67 μM each); open circles, 3-fold dilutions; gray filled-in circles, 9-fold dilutions.
as §1, with “For the mutagenesis study of LR, the wild-type and mutant LR peptides were synthesized, purified by reverse-phase HPLC, and lyophilized to dryness at the peptide core in Boston Biomedical Research Institute.” left out

Series [2] concerns the molecule itself. In words: AUC; sedimentation velocity of each MRIP peptide alone, three-fold serial dilutions (MRIP^545-878 1.5–13.6 μM, MRIP^724-878 4.7–42.3 μM, MRIP^724-837 7.5–67.1 μM); 50 mM potassium phosphate pH 7.4, 100 mM KCl, 1 mM DTT, 50,000 rpm, 20°C; global fitting with SedAnal; constant of MRIP^724-837: dimer to monomers.

As to “E996K: mutant LR peptide with same length as wild-type, substitutions for charged residues (ERRISKMEEELKMLPDLKADNQRLKDENGALIRVISKLSK)”, the “main peak position of mixture with MRIP^724-878” value with MRIP^724-878 is given as “shifted to the right, indicating binding”. “EtriA: mutant LR in which glutamic acid residues 998–1000 were replaced by alanine (ERRISEMAAALKMLPDLKADNQRLKDENGALIRVISKLSK)”: the “binding affinity toward MRIP^724-878, LR mutants” value in the series with MRIP^724-878 is “significantly decreased binding affinity”. Consider “EtriQ: mutant LR in which glutamic acid residues 998–1000 were replaced by glutamine (ERRISEMQQQLKMLPDLKADNQRLKDENGALIRVISKLSK)”, for which the “binding affinity toward MRIP^724-878, LR mutants” value with MRIP^724-878 is “significantly decreased binding affinity”. For “LR^997-1030: mutant LR peptide shorter than LR in length (MEEELKMLPDLKADNQRLKDENGALIRVISKLSK)”, in the series with MRIP^724-878, the “binding affinity toward MRIP^724-878, LR mutants” value was “decreased”. On the same count and under the same terms, the value for “LR^1001-1030: mutant LR peptide shorter than LR in length (LKMLPDLKADNQRLKDENGALIRVISKLSK)” was “decreased”; that for “LR^1007-1028: mutant LR peptide shorter than LR in length (LKADNQRLKDENGALIRVISKL)” was “decreased”. For “R992D/R993D: mutant LR peptide with same length as wild-type, substitutions for charged residues (EDDISEMEEELKMLPDLKADNQRLKDENGALIRVISKLSK)”, in the series with MRIP^724-878, the “main peak position of mixture with MRIP^724-878” value is listed as “shifted to the right, indicating binding”.

B1: MRIP^545-878: recombinant tag-free MRIP peptide, residues 545–878; CC1-CC4 (protein)
chain: WAEFRPIQQALAQERVGGVGPADTHEPLRPEAEPGELERERARRREERRKRFGMLDATDGPGTEDAALRMEVDRSPGLPMSDLKTHNVHVEIEQRWHQVETTPLREEKQVPIAPVHLSSEDGGDRLSTHELTSLLEKELEQSQKEASDLLEQNRLLQDQLRVALGREQSAREGYVLQATCERGFAAMEETHQKKIEDLQRQHQRELEKLREEKDRLLAEETAATISAIEAMKNAHREEMERELEKSQRSQISSVNSDVEALRRQYLEELQSVQRELEVLSEQYSQKCLENAHLAQALEAERQALRQCQRENQELNAHNQELNNRLAAEITRLRT
modifications: left off: chitin-binding domain (IMPACT kit, pTYB12), N-terminal, cleaved
notes: recombinant tag-free MRIP peptide, residues 545–878; CC1-CC4
In turn, B1 yielded a molar mass in series [1] (AUC sedimentation velocity, SedAnal global fit to two components (main component), 1.5–13.6 μM, 50 mM potassium phosphate pH 7.4, 100 mM KCl, 1 mM DTT, 50,000 rpm, 20°C, CL 0.95, min, 38.1, max, 40.9) of 39.4 kDa. In series [1] (AUC sedimentation velocity, SedAnal global fit, two components (main component), 1.5–13.6 μM, pH 7.4, 100 mM KCl, 20°C, CL 0.95), this molecule had a sedimentation coefficient of 2.17±0.01 S. The “oligomeric state in solution” value in series [1] (AUC sedimentation velocity, pH 7.4, 100 mM KCl, 20°C) was “forms a monomer in solution”. In series [1] (AUC, MRIP^545-878 1.5–13.6 μM, MRIP^724-878 4.7–42.3 μM, MRIP^724-837 7.5–67.1 μM, pH 7.4, 20°C), the “concentration dependence of g(s*) curves” value is “no-concentration dependence and the presence of one species in solution”. In the series on CCLR, the “binding to CCLR (shift in g(s*) curves)” value was “bind to CCLR”.

B2: MRIP^724-837 (myosin phosphatase-RhoA interacting protein, residues 724–837; CC2-CC3) (domain or fragment, UniProt Q6WCQ1 724-837, looked up)
chain: CERGFAAMEETHQKKIEDLQRQHQRELEKLREEKDRLLAEETAATISAIEAMKNAHREEMERELEKSQRSQISSVNSDVEALRRQYLEELQSVQRELEVLSEQYSQKCLENAHL
notes: Monomer-dimer equilibrium in solution by AUC; source: E. coli BL21 (DE3), purified (chitin beads, C8 reversed-phase HPLC)
Consider B2, for which, in series [2], the Kd was 21 µM and the “stoichiometry N” value was 2.

B3: MRIP^724-878 (myosin phosphatase-RhoA interacting protein, residues 724–878; CC2-CC4) (domain or fragment, UniProt Q6WCQ1 724-878, looked up)
chain: CERGFAAMEETHQKKIEDLQRQHQRELEKLREEKDRLLAEETAATISAIEAMKNAHREEMERELEKSQRSQISSVNSDVEALRRQYLEELQSVQRELEVLSEQYSQKCLENAHLAQALEAERQALRQCQRENQELNAHNQELNNRLAAEITRLRT
notes: Tight homodimer in solution by AUC; the forward primer puts an NdeI ATG before the codons GAGCGAGGGTTTGCAGCAATG; source: E. coli BL21 (DE3), purified (chitin beads, C8 reversed-phase HPLC)
For B3, the “stoichiometry N” value in series [2] was 2.
